This assay concerns the target unmodified nucleosome (recombinant human histone octamer on Widom 601 DNA) (human, UniProt P04908 1-130; O60814 1-126; P68431 1-136; P62805 1-103). The experiment in a line: native gel or EMSA; purified CHD1 titrated against 5 nM IR dye-conjugated nucleosome in EMSA buffer (10 mM HEPES pH 8.0, 75 mM NaCl, 5 mM MgCl2, 10% glycerol, 1 mM DTT, 0.1 mg/ml BSA), 30 min at 30 °C, native PAGE; shifted fraction fitted to a dose-response curve. The settings on record: both partners purified.

Usually Kd stands for the equilibrium constant for the complex coming apart.

B1: recombinant CHD1^ΔNC protein (domain or fragment)
chain: EEEFETIERFMDCRIGRKGATGATTTIYAVEADGDPNAGFEKNKEPGEIQYLIKWKGWSHIHNTWETEETLKQQNVRGMKKLDNYKKKDQETKRWLKNASPEDVEYYNCQQELTDDLHKQYQIVERIIAHSNQKSAAGYPDYYCKWQGLPYSECSWEDGALISKKFQACIDEYFSRNQSKTTPFKDCKVLKQRPRFVALKKQPSYIGGHEGLELRDYQLNGLNWLAHSWCKGNSCILADEMGLGKTIQTISFLNYLFHEHQLYGPFLLVVPLSTLTSWQREIQTWASQMNAVVYLGDINSRNMIRTHEWTHHQTKRLKFNILLTTYEILLKDKAFLGGLNWAFIGVDEAHRLKNDDSLLYKTLIDFKSNHRLLITGTPLQNSLKELWSLLHFIMPEKFSSWEDFEEEHGKGREYGYASLHKELEPFLLRRVKKDVEKSLPAKVEQILRMEMSALQKQYYKWILTRNYKALSKGSKGSTSGFLNIMMELKKCCNHCYLIKPPDNNEFYNKQEALQHLIRSSGKLILLDKLLIRLRERGNRVLIFSQMVRMLDILAEYLKYRQFPFQRLDGSIKGELRKQALDHFNAEGSEDFCFLLSTRAGGLGINLASADTVVIFDSDWNPQNDLQAQARAHRIGQKKQVNIYRLVTKGSVEEDILERAKKKMVLDHLVIQRMDTTGKTVLHTGSAPSSSTPFNKEELSAILKFGAEELFKEPEGEEQEPQEMDIDEILKRAETHENEPGPLTVGDELLSQFKVANFSNMDEDDIELEPERNSKNWEEIIPEDQRRRLEEEERQKELEEIYMLPRMRNCAKQISFNGSEGRRSRSRRYSGSDSDSISEGKRPKKRGRPRTIPRENIKGFSDAEIRRFIKSYKKFGGPLERLDAIARDAELVDKSETDLRRLGELVHNGCIKALKDSSSGTERTGGRLGKVKGPTFRISGVQVNAKLVISHEEELIPLHKSIPSDPEERKQYTIPCHTKAAHFDIDWGKEDDSNLLIGIYEYGYGSWEMIKMDPDLSLTHKILPDDPDKKPQAKQLQTRADYLIKLLSRDLAKKEALSGAGSSKRRKARAKKNKA
B1: the Kd stood at 6.3 nM.
